In US20250295772A1 (ABATA THERAPEUTICS, published 2025):

T1: preproinsulin 73-90 peptide complexed with HLA-DRB1*04:01 (human, UniProt P01903 26-254; P01911 30-266)
T1 MHC II alpha: not shown
T1 MHC II beta: not shown
T1 peptide: GAGSLQPLALEGSLQKRG

B1: TCR-K (TCR)
TCR alpha: RGNGKNQVEQSPQSLIILEGKNCTLQCNYTVSPFSNLRWYKQDTGRGPVSLTIMTFSENTKSNGRYTATLDADTKQSSLHITASQLSDSASYICVVSASSNTGKLIFGQGTTLQVKPDIQNPDPAVYQLRDSKSSDKSVCLFTDFDSQTNVSQSKDSDVYITDKTVLDMRSMDFKSNSAVAWSNKSDFACANAFNNSIIPEDTFFPSPESSCDVKLVEKSFETDTNLNFQNLSVIGFRILLLKVAGFNLLMTLRLWSS
TCR beta: DAGVIQSPRHEVTEMGQEVTLRCKPISGHNSLFWYRQTMMRGLELLIYFNNNVPIDDSGMPEDRFSAKMPNASFSTLKIQPSEPRDSAVYFCASSGQLVAYNEQFFGPGTRLTVLEDLKNVFPPEVAVFEPSEAEISHTQKATLVCLATGFYPDHVELSWWVNGKEVHSGVSTDPQPLKEQPALNDSRYCLSSRLRVSATFWQNPRNHFRCQVQFYGLSENDEWTQDRAKPVTQIVSAEAWGRADCGFTSESYQQGVLSATILYEILLGKATLYAVLVSALVLMAMVKRKDSRG
B2: TCR-K DS (TCR)
TCR alpha: RGNGKNQVEQSPQSLIILEGKNCTLQCNYTVSPFSNLRWYKQDTGRGPVSLTIMTFSENTKSNGRYTATLDADTKQSSLHITASQLSDSASYICVVSASSNTGKLIFGQGTTLQVKPDIQNPDPAVYQLRDSKSSDKSVCLFTDFDSQTNVSQSKDSDVYITDKCVLDMRSMDFKSNSAVAWSNKSDFACANAFNNSIIPEDTFFPSPESSCDVKLVEKSFETDTNLNFQNLSVIGFRILLLKVAGFNLLMTLRLWSS
TCR beta: DAGVIQSPRHEVTEMGQEVTLRCKPISGHNSLFWYRQTMMRGLELLIYFNNNVPIDDSGMPEDRFSAKMPNASFSTLKIQPSEPRDSAVYFCASSGQLVAYNEQFFGPGTRLTVLEDLKNVFPPEVAVFEPSEAEISHTQKATLVCLATGFYPDHVELSWWVNGKEVHSGVCTDPQPLKEQPALNDSRYCLSSRLRVSATFWQNPRNHFRCQVQFYGLSENDEWTQDRAKPVTQIVSAEAWGRADCGFTSESYQQGVLSATILYEILLGKATLYAVLVSALVLMAMVKRKDSRG
B3: TCR-O (TCR, V domains shown)
V domain 1: KQEVTQIPAALSVPEGENLVLNCSFTDSAIYNLQWFRQDPGKGLTSLLLIQSSQREQTSGRLNASLDKSSGRSTLYIAASQPGDSATYLCAVTGMDSSYKLIFGSGTRLLVRP
V domain 2: DAEITQSPRHKITETGRQVTLACHQTWNHNNMFWYRQDLGHGLRLIHYSYGVHDTNKGEVSDGYSVSRSNTEDLPLTLESAASSQTSVYFCASSEGGSWGYTFGSGTRLTVVE
B4: TCR-N (TCR, V domains shown)
V domain 1: GESVGLHLPTLSVQEGDNSIINCAYSNSASDYFIWYKQESGKGPQFIIDIRSNMDKRQGQRVTVLLNKTVKHLSLQIAATQPGDSAVYFCAEISKTSYDKVIFGPGTSLSVIP
V domain 2: NAGVTQTPKFRILKIGQSMTLQCAQDMNHNYMYWYRQDPGMGLKLIYYSVGAGITDKGEVPNGYNVSRSTTEDFPLRLELAAPSQTSVYFCASSYGPGGRNTIYFGEGSWLTVVE
B5: TCR-L (TCR, V domains shown)
V domain 1: RKEVEQDPGPFNVPEGATVAFNCTYSNSASQSFFWYRQDCRKEPKLLMSVYSSGNEDGRFTAQLNRASQYISLLIRDSKLSDSATYLCVVLRNSGNTPLVFGKGTRLSVIA
V domain 2: DAGITQSPRHKVTETGTPVTLRCHQTENHRYMYWYRQDPGHGLRLIHYSYGVKDTDKGEVSDGYSVSRSKTEDFLLTLESATSSQTSVYFCAIKPGQGNRGEQFFGPGTRLTVLE
B6: TCR-M (TCR, V domains shown)
V domain 1: DQQVKQNSPSLSVQEGRISILNCDYTNSMFDYFLWYKKYPAEGPTFLISISSIKDKNEDGRFTVFLNKSAKHLSLHIVPSQPGDSAVYFCAASAKTSGSRLTFGEGTQLTVNP
V domain 2: NAGVTQTPKFRILKIGQSMTLQCTQDMNHNYMYWYRQDPGMGLKLIYYSVGAGITDKGEVPNGYNVSRSTTEDFPLRLELAAPSQTSVYFCASRGGIQETQYFGPGTRLLVLE
B7: TCR-S DS (TCR, V domains shown)
V domain 1: QKEVEQDPGPLSVPEGAIVSLNCTYSNSAFQYFMWYRQYSRKGPELLMYTYSSGNKEDGRFTAQVDKSSKYISLFIRDSQPSDSATYLCAMSEYSGYALNFGKGTSLLVTP
V domain 2: GITQSPKYLFRKEGQNVTLSCEQNLNHDAMYWYRQDPGQGLRLIYYSQIVNDFQKGDIAEGYSVSREKKESFPLTVTSAQKNPTAFYLCASSNRDEQYFGPGTRLTVTE
B8: TCR-Q (TCR, V domains shown)
V domain 1: KDQVFQPSTVASSEGAVVEIFCNHSVSNAYNFFWYLHFPGCAPRLLVKGSKPSQQGRYNMTYERFSSSLLILQVREADAAVYYCAVGDTGGFKTIFGAGTRLFVKA
V domain 2: DSGVTQTPKHLITATGQRVTLRCSPRSGDLSVYWYQQSLDQGLQFLIHYYNGEERAKGNILERFSAQQFPDLHSELNLSSLELGDSALYFCASSEIAGFSTDTQYFGPGTRLTVLE

Target: T1, preproinsulin 73-90 peptide complexed …
Experiment: cell-based or functional assay

Point of comparison: B2, “EC50 (nM) of CD69 upregulation, conventional CD4+ T cells + BLS-DRB1*04:01 cells, peptide titrated” value 19.1 nM. Against it:
- B1 — 2.5-fold higher, 47.7 nM
- B3 — 3-fold lower, 6.34 nM
- B4 — within 1.5-fold, 28.2 nM
- B5 — 26-fold higher, 498 nM
- B6 — 13-fold higher, 244 nM
- B7 — 520-fold higher, 10000 nM
- B8 — 21-fold higher, 409 nM
